Test results reported in the supplement of paper PMC7125110.
± gives the standard error. Variants at the floor of the assay were thinned out.

B1: glmS ribozyme (parent)
chain: AUAAAAGCGCCAGAACUACAGAAAUGUAGUUGACGAGGAGGAGGUUUAUCGAAUUUUCGGCGGAUGCCUCCAAA

Assays:
Details in all cases: with glucosamine-6-phosphate
glucosamine-6-phosphate [1] = variants of: B1; experiment: self-cleavage kobs at 40 uM GlcN6P; higher = faster cleavage; RNA array
In short: (§1)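 Tracking of barcoded ribozyme variants used a hybridised Cy3 probe at 37 °C, after in situ transcription by E. coli RNA polymerase on sequenced MiSeq chips. The flowed solution held 40 μM to 10 mM glucosamine-6-phosphate in HEPES/KCl/Mg(OAc)2 buffer, and imaging ran over ~14 h. kobs was taken from exponential decay fits of normalised per-tile medians, and kcat and KM from weighted Michaelis–Menten fits.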

glucosamine-6-phosphate [2] = variants of: B1; experiment: self-cleavage kobs at 10000 uM GlcN6P; higher = faster cleavage; RNA array
In short: as §1

glucosamine-6-phosphate [3] = variants of: B1; experiment: self-cleavage kobs at 2500 uM GlcN6P; higher = faster cleavage; RNA array
In short: as §1

glucosamine-6-phosphate [4] = variants of: B1; experiment: self-cleavage kobs at 160 uM GlcN6P; higher = faster cleavage; RNA array
In short: as §1

glucosamine-6-phosphate [5] = variants of: B1; experiment: self-cleavage kobs at 640 uM GlcN6P; higher = faster cleavage; RNA array
In short: as §1

Variant	self-cleavage kobs at 40 uM GlcN6P (glucosamine-6-phosphate [1]) [s⁻¹]	self-cleavage kobs at 10000 uM GlcN6P (glucosamine-6-phosphate [2]) [s⁻¹]	self-cleavage kobs at 2500 uM GlcN6P (glucosamine-6-phosphate [3]) [s⁻¹]	self-cleavage kobs at 160 uM GlcN6P (glucosamine-6-phosphate [4]) [s⁻¹]	self-cleavage kobs at 640 uM GlcN6P (glucosamine-6-phosphate [5]) [s⁻¹]
A12U G40A U45C	6.12e-05 ± 2e-05	0.00175 ± 0.0003	–	–	–
G13A C16A A52U	< 1e-05	< 1e-05	< 1e-05	–	–
C10A A14U C70A	5.36e-05 ± 2.5e-05	3.49e-05 ± 1.4e-05	–	–	–
A33U A53U C61A U69A	< 1e-05	–	–	–	–
A6U G7U C16G C34A	< 1e-05	< 1e-05	–	–	–
G9U G51C	< 1e-05	< 1e-05	–	< 1e-05	–
U49A C58A	< 1e-05	–	–	< 1e-05	< 1e-05
A6U C50G	4.82e-05 ± 1.8e-05	2.57e-05 ± 1.3e-05	0.000434 ± 0.00021	6.77e-05 ± 2.7e-05	–
A33G G63A U65G	< 1e-05	–	–	–	–
A15C A33C A64U	< 1e-05	< 1e-05	–	–	–
A12U G29A U56C	0.000118 ± 2.9e-05	–	0.0018 ± 0.00058	–	0.000685 ± 0.00022
G32C G43C G51U	< 1e-05	< 1e-05	–	–	–
A12C A15C U47A U49A	< 1e-05	< 1e-05	–	–	–
A6U C8G A33U C34G U69G	8.53e-05 ± 1.8e-05	6.82e-05 ± 1.7e-05	–	–	0.000181 ± 5.7e-05
A36G G63U	< 1e-05	< 1e-05	< 1e-05	< 1e-05	< 1e-05
A14G C34A G44U C68U	< 1e-05	–	–	< 1e-05	–
G37A A39U A42G C50U	< 1e-05	< 1e-05	–	–	< 1e-05
A15C C50G G62U	4.56e-05 ± 2.2e-05	–	0.000111 ± 3.3e-05	–	6.39e-05 ± 2.8e-05
C34G	< 1e-05	< 1e-05	< 1e-05	< 1e-05	< 1e-05
A33U G40C C71A	< 1e-05	–	–	–	–
A39U C68U C71G	< 1e-05	4.42e-05 ± 2e-05	–	–	–
A6G C10U A39G C58A	< 1e-05	< 1e-05	< 1e-05	–	–
A14G C16U	0.00189 ± 0.00023	0.0726 ± 0.02	0.00522 ± 0.0012	0.0032 ± 0.0007	0.00488 ± 0.00082
G9U G41U A42G A64U C71U	< 1e-05	< 1e-05	–	–	–

Variant	self-cleavage kobs at 40 uM GlcN6P (glucosamine-6-phosphate [1]) [s⁻¹]	self-cleavage kobs at 10000 uM GlcN6P (glucosamine-6-phosphate [2]) [s⁻¹]	self-cleavage kobs at 2500 uM GlcN6P (glucosamine-6-phosphate [3]) [s⁻¹]	self-cleavage kobs at 160 uM GlcN6P (glucosamine-6-phosphate [4]) [s⁻¹]	self-cleavage kobs at 640 uM GlcN6P (glucosamine-6-phosphate [5]) [s⁻¹]
A33C G62C	< 1e-05	< 1e-05	< 1e-05	–	< 1e-05
G7C C71G	< 1e-05	< 1e-05	< 1e-05	–	–
A33G A48G C71U	< 1e-05	< 1e-05	< 1e-05	< 1e-05	–
G35U G63U G66C C67A	< 1e-05	< 1e-05	–	–	–
A12C G38C G44A A64G	< 1e-05	–	< 1e-05	–	–
A6U G51A	< 1e-05	< 1e-05	–	–	–
C34A C68U	< 1e-05	< 1e-05	< 1e-05	< 1e-05	< 1e-05
G7U A14U	< 1e-05	< 1e-05	–	< 1e-05	< 1e-05
C34G G40A U55G	< 1e-05	–	–	–	–
G37U A48U	< 1e-05	< 1e-05	< 1e-05	< 1e-05	–
C11A G51A	< 1e-05	< 1e-05	–	–	< 1e-05
U31A G59C	< 1e-05	< 1e-05	< 1e-05	< 1e-05	< 1e-05
C11G G32C G38A A42C G60C	< 1e-05	–	< 1e-05	–	–
U57A G59U	< 1e-05	< 1e-05	–	< 1e-05	< 1e-05
G13C C16A G37U	< 1e-05	< 1e-05	–	–	–
G40C C50U C58A C71G	< 1e-05	< 1e-05	–	–	–
U46C A64G	0.000191 ± 2.5e-05	0.00537 ± 0.0008	–	–	–
U47C A48G C50G C70G	3.16e-05 ± 1.6e-05	–	–	–	–
G13A C34A A36U C68G	8.42e-05 ± 3e-05	6.2e-05 ± 2.4e-05	–	–	–
A12U G29A A39G A53U	0.000581 ± 0.00016	0.0117 ± 0.0041	–	–	–
C10U G35C A52U	< 1e-05	–	–	–	–
C8U G9U	< 1e-05	–	< 1e-05	< 1e-05	< 1e-05
G7U C8G A12U U49G	< 1e-05	< 1e-05	< 1e-05	< 1e-05	< 1e-05
